Assay [1] has as its target recombinant CD81 large extracellular loop (CD81-LEL). Kind of assay: peptide or protein array; direct analysis on a 3-D biochip: CD81-LEL covalently immobilised in spots (300 pg/spot) on macroporous P(GMA-co-DEGDMA), blocked with BSA; E2-GFP or VMPs in solution, 0.01 M PBS pH 7.4 (VMPs also in spiked human blood plasma), 2 h, 37 °C; GFP fluorescence read; apparent dissociation constants from adsorption isotherms linearised in double reciprocal coordinates.

Assay [2] shares this target. The assay can be described thus: peptide or protein array; sandwich analysis on a 3-D biochip: CD81-LEL immobilised (300 pg/spot); E2-GFP or VMPs at 1500 ng/mL, 2 h, 37 °C; then Cy3-labelled polyclonal anti-E2 antibodies (1000 ng/mL, 3 h) for detection; 0.01 M PBS pH 7.4 or spiked human blood plasma.

As to “chimeric protein E2-superfolder GFP (HCV E2 core, 412-645 aa) (domain or fragment)”, in assay [1], the Kd came to 11.6 nM.
As to “hepatitis C virus-mimetic particles (HC VMPs): PLA-b-PEG nanoparticles bearing E2-GFP on their surface”, the Kd in assay [1] was found to be 26.3 nM. The decrease in relative signal intensity against free E2 in assay [1] was 40%; in assay [2], 45 to 48%.

Source of the values: publication PMC7249126.
